Experimental data from the RNAGym collection of RNA variant scans (doi:10.7554/elife.80360).

B1: HDV Ribozyme (parent)
chain: GGCCGGCAUGGUCCCAGCCUCCUCGCUGGCGCCGGCUGGGCAACAUUCCGAGGGGACCGUCCCCUCGGUAAUGGCGAAUGGGACCCA

Variants of: B1
Assay: self-cleavage, relative activity (ratio to wild type); higher = more cleavage; co-transcriptional

Variant | self-cleavage
GGCCGGCAUGGUCCCAGCCUCCUCGCUGGCGCCGGCUGGGCAACAUUCCGAGGGGACCGUCCCCUCGGUAAUGGCGAUUGGGACCUA | 0.309
GGCCGGCAUGGUCCCAGCCUCCUCGCUGGCGCCGGCUGGGCAACAUUCCGAGGGGACCGUCCCCUCGGUAAUGGCGAUUGGGACCAA | 0.208
GGCCGGCAUGGUCCCAGCCUCCUCGCUGGCGCCGGCUGGGCAACAUUCCGAGGGGACCGUCCCCUCGGUAAUGGCGAUUGGGACCGA | 0.163
GGCCGGCAUGGUCCCAGCCUCCUCGCUGGCGCCGGCUGGGCAACAUUCCGAGGGGACCGUCCCCUCGGUAAUGGCGAGUGUGACCCA | 0.185
GGCCGGCAUGGUCCCAGCCUCCUCGCUGGCGCCGGCUGGGCAACAUUCCGAGGGGACCGUCCCCUCGGUAAUGGCGAAAGGGACCAA | 0.688
GGCCGGCAUGGUCCCAGCCUCCUCGCUGGCGCCGGCUGGGCAACAUUCCGAGGGGACCGUCCCCUCGGUAAUGGCGUAUGGGACCCU | 0.785
GGCCGGCAUGGUCCCAGCCUCCUCGCUGGCGCCGGCUGGGCAACAUUCCGAGGGGACCGUCCCCUCGGUAAUGGCGUAUGGGACCGA | 0.623
GGCCGGCAUGGUCCCAGCCUCCUCGCUGGCGCCGGCUGGGCAACAUUCCGAGGGGACCGUCCCCUCGGUAAUGGCGAAAGGGGCCCA | 0.375
GGCCGGCAUGGUCCCAGCCUCCUCGCUGGCGCCGGCUGGGCAACAUUCCGAGGGGACCGUCCCCUCGGUAAUGGCGUAUGGGACACA | 0.514
GGCCGGCAUGGUCCCAGCCUCCUCGCUGGCGCCGGCUGGGCAACAUUCCGAGGGGACCGUCCCCUCGGUAAUGGCGAUUGUGACCCA | 0.269
GGCCGGCAUGGUCCCAGCCUCCUCGCUGGCGCCGGCUGGGCAACAUUCCGAGGGGACCGUCCCCUCGGUAAUGGCGAAAGGGAUCCA | 0.314
GGCCGGCAUGGUCCCAGCCUCCUCGCUGGCGCCGGCUGGGCAACAUUCCGAGGGGACCGUCCCCUCGGUAAUGGCGAAAGGGAACCA | 0.539
GGCCGGCAUGGUCCCAGCCUCCUCGCUGGCGCCGGCUGGGCAACAUUCCGAGGGGACCGUCCCCUCGGUAAUGGCGAUUGGAACCCA | 0.109
GGCCGGCAUGGUCCCAGCCUCCUCGCUGGCGCCGGCUGGGCAACAUUCCGAGGGGACCGUCCCCUCGGUAAUGGCGACUGGGAUCCA | 0.196
GGCCGGCAUGGUCCCAGCCUCCUCGCUGGCGCCGGCUGGGCAACAUUCCGAGGGGACCGUCCCCUCGGUAAUGGCGACUGGGAGCCA | 0.11
GGCCGGCAUGGUCCCAGCCUCCUCGCUGGCGCCGGCUGGGCAACAUUCCGAGGGGACCGUCCCCUCGGUAAUGGCGACUGGGAACCA | 0.156
GGCCGGCAUGGUCCCAGCCUCCUCGCUGGCGCCGGCUGGGCAACAUUCCGAGGGGACCGUCCCCUCGGUAAUGGCGAUUUGGACCCA | 0.244
GGCCGGCAUGGUCCCAGCCUCCUCGCUGGCGCCGGCUGGGCAACAUUCCGAGGGGACCGUCCCCUCGGUAAUGGCGAUUCGGACCCA | 0.174
GGCCGGCAUGGUCCCAGCCUCCUCGCUGGCGCCGGCUGGGCAACAUUCCGAGGGGACCGUCCCCUCGGUAAUGGCGAGUAGGACCCA | 0.242
GGCCGGCAUGGUCCCAGCCUCCUCGCUGGCGCCGGCUGGGCAACAUUCCGAGGGGACCGUCCCCUCGGUAAUGGCGUACGGGACCCA | 0.0811
GGCCGGCAUGGUCCCAGCCUCCUCGCUGGCGCCGGCUGGGCAACAUUCCGAGGGGACCGUCCCCUCGGUAAUGGCGUAAGGGACCCA | 0.32
GGCCGGCAUGGUCCCAGCCUCCUCGCUGGCGCCGGCUGGGCAACAUUCCGAGGGGACCGUCCCCUCGGUAAUGGCGACUGGGACCCU | 0.199

Variant | self-cleavage
GGCCGGCAUGGUCCCAGCCUCCUCGCUGGCGCCGGCUGGGCAACAUUCCGAGGGGACCGUCCCCUCGGUAAUGGCGACUGGGACCCC | 0.199
GGCCGGCAUGGUCCCAGCCUCCUCGCUGGCGCCGGCUGGGCAACAUUCCGAGGGGACCGUCCCCUCGGUAAUGGCGACUGGGACCCG | 0.127
GGCCGGCAUGGUCCCAGCCUCCUCGCUGGCGCCGGCUGGGCAACAUUCCGAGGGGACCGUCCCCUCGGUAAUGGCGAGGGGGACCCA | 0.268
GGCCGGCAUGGUCCCAGCCUCCUCGCUGGCGCCGGCUGGGCAACAUUCCGAGGGGACCGUCCCCUCGGUAAUGGCGAAAGGGACCCC | 0.849
GGCCGGCAUGGUCCCAGCCUCCUCGCUGGCGCCGGCUGGGCAACAUUCCGAGGGGACCGUCCCCUCGGUAAUGGCGAAAGGGACCCU | 0.98
GGCCGGCAUGGUCCCAGCCUCCUCGCUGGCGCCGGCUGGGCAACAUUCCGAGGGGACCGUCCCCUCGGUAAUGGCGACCGGGACCCA | 0.153
GGCCGGCAUGGUCCCAGCCUCCUCGCUGGCGCCGGCUGGGCAACAUUCCGAGGGGACCGUCCCCUCGGUAAUGGCGACGGGGACCCA | 0.113
GGCCGGCAUGGUCCCAGCCUCCUCGCUGGCGCCGGCUGGGCAACAUUCCGAGGGGACCGUCCCCUCGGUAAUGGCGACUGGAACCCA | 0.106
GGCCGGCAUGGUCCCAGCCUCCUCGCUGGCGCCGGCUGGGCAACAUUCCGAGGGGACCGUCCCCUCGGUAAUGGCGACUGGUACCCA | 0.212
GGCCGGCAUGGUCCCAGCCUCCUCGCUGGCGCCGGCUGGGCAACAUUCCGAGGGGACCGUCCCCUCGGUAAUGGCGAGUGGGACCCU | 0.862
GGCCGGCAUGGUCCCAGCCUCCUCGCUGGCGCCGGCUGGGCAACAUUCCGAGGGGACCGUCCCCUCGGUAAUGGCGAGUGGGACCCC | 0.452
GGCCGGCAUGGUCCCAGCCUCCUCGCUGGCGCCGGCUGGGCAACAUUCCGAGGGGACCGUCCCCUCGGUAAUGGCGAGUGGGAUCCA | 0.53
GGCCGGCAUGGUCCCAGCCUCCUCGCUGGCGCCGGCUGGGCAACAUUCCGAGGGGACCGUCCCCUCGGUAAUGGCGAGUGGGAACCA | 0.571
GGCCGGCAUGGUCCCAGCCUCCUCGCUGGCGCCGGCUGGGCAACAUUCCGAGGGGACCGUCCCCUCGGUAAUGGCGAUUGGGACCCG | 0.226
GGCCGGCAUGGUCCCAGCCUCCUCGCUGGCGCCGGCUGGGCAACAUUCCGAGGGGACCGUCCCCUCGGUAAUGGCGAUUGGGACCCC | 0.31
GGCCGGCAUGGUCCCAGCCUCCUCGCUGGCGCCGGCUGGGCAACAUUCCGAGGGGACCGUCCCCUCGGUAAUGGCGUAUGGGAGCCA | 0.403
GGCCGGCAUGGUCCCAGCCUCCUCGCUGGCGCCGGCUGGGCAACAUUCCGAGGGGACCGUCCCCUCGGUAAUGGCGUAUGGGAACCA | 0.291
GGCCGGCAUGGUCCCAGCCUCCUCGCUGGCGCCGGCUGGGCAACAUUCCGAGGGGACCGUCCCCUCGGUAAUGGCGAGUGGCACCCA | 0.0519
GGCCGGCAUGGUCCCAGCCUCCUCGCUGGCGCCGGCUGGGCAACAUUCCGAGGGGACCGUCCCCUCGGUAAUGGCGAGUGGUACCCA | 0.295
GGCCGGCAUGGUCCCAGCCUCCUCGCUGGCGCCGGCUGGGCAACAUUCCGAGGGGACCGUCCCCUCGGUAAUGGCGAAAGGGACCCA | 0.808
GGCCGGCAUGGUCCCAGCCUCCUCGCUGGCGCCGGCUGGGCAACAUUCCGAGGGGACCGUCCCCUCGGUAAUGGCGAAAGGGACUCA | 0.855
GGCCGGCAUGGUCCCAGCCUCCUCGCUGGCGCCGGCUGGGCAACAUUCCGAGGGGACCGUCCCCUCGGUAAUGGCGACUGGGCCCCA | 0.151

Variant | self-cleavage
GGCCGGCAUGGUCCCAGCCUCCUCGCUGGCGCCGGCUGGGCAACAUUCCGAGGGGACCGUCCCCUCGGUAAUGGCGACUGAGACCCA | 0.17
GGCCGGCAUGGUCCCAGCCUCCUCGCUGGCGCCGGCUGGGCAACAUUCCGAGGGGACCGUCCCCUCGGUAAUGGCGAAAAGGACCCA | 0.234
GGCCGGCAUGGUCCCAGCCUCCUCGCUGGCGCCGGCUGGGCAACAUUCCGAGGGGACCGUCCCCUCGGUAAUGGCGACUGGGACUCA | 0.0923
GGCCGGCAUGGUCCCAGCCUCCUCGCUGGCGCCGGCUGGGCAACAUUCCGAGGGGACCGUCCCCUCGGUAAUGGCGACUGGGACACA | 0.277
GGCCGGCAUGGUCCCAGCCUCCUCGCUGGCGCCGGCUGGGCAACAUUCCGAGGGGACCGUCCCCUCGGUAAUGGCGUAUGGGUCCCA | 0.0898
GGCCGGCAUGGUCCCAGCCUCCUCGCUGGCGCCGGCUGGGCAACAUUCCGAGGGGACCGUCCCCUCGGUAAUGGCGUAUCGGACCCA | 0.136
GGCCGGCAUGGUCCCAGCCUCCUCGCUGGCGCCGGCUGGGCAACAUUCCGAGGGGACCGUCCCCUCGGUAAUGGCGUAUUGGACCCA | 0.161
GGCCGGCAUGGUCCCAGCCUCCUCGCUGGCGCCGGCUGGGCAACAUUCCGAGGGGACCGUCCCCUCGGUAAUGGCGUAUAGGACCCA | 0.0923
GGCCGGCAUGGUCCCAGCCUCCUCGCUGGCGCCGGCUGGGCAACAUUCCGAGGGGACCGUCCCCUCGGUAAUGGCGAGUGGGACACA | 0.86
GGCCGGCAUGGUCCCAGCCUCCUCGCUGGCGCCGGCUGGGCAACAUUCCGAGGGGACCGUCCCCUCGGUAAUGGCGAGUGGGACGCA | 0.539
GGCCGGCAUGGUCCCAGCCUCCUCGCUGGCGCCGGCUGGGCAACAUUCCGAGGGGACCGUCCCCUCGGUAAUGGCGAGUGGGACCUA | 0.643
GGCCGGCAUGGUCCCAGCCUCCUCGCUGGCGCCGGCUGGGCAACAUUCCGAGGGGACCGUCCCCUCGGUAAUGGCGAGUGGGACCAA | 0.727
GGCCGGCAUGGUCCCAGCCUCCUCGCUGGCGCCGGCUGGGCAACAUUCCGAGGGGACCGUCCCCUCGGUAAUGGCGAUUGGGGCCCA | 0.285
GGCCGGCAUGGUCCCAGCCUCCUCGCUGGCGCCGGCUGGGCAACAUUCCGAGGGGACCGUCCCCUCGGUAAUGGCGAUUGGGUCCCA | 0.269
GGCCGGCAUGGUCCCAGCCUCCUCGCUGGCGCCGGCUGGGCAACAUUCCGAGGGGACCGUCCCCUCGGUAAUGGCGAGUGGGUCCCA | 0.0437
GGCCGGCAUGGUCCCAGCCUCCUCGCUGGCGCCGGCUGGGCAACAUUCCGAGGGGACCGUCCCCUCGGUAAUGGCGAGUGGGGCCCA | 0.445
GGCCGGCAUGGUCCCAGCCUCCUCGCUGGCGCCGGCUGGGCAACAUUCCGAGGGGACCGUCCCCUCGGUAAUGGCGUAUGGUACCCA | 0.0811
GGCCGGCAUGGUCCCAGCCUCCUCGCUGGCGCCGGCUGGGCAACAUUCCGAGGGGACCGUCCCCUCGGUAAUGGCGUAUGGAACCCA | 0.271
GGCCGGCAUGGUCCCAGCCUCCUCGCUGGCGCCGGCUGGGCAACAUUCCGAGGGGACCGUCCCCUCGGUAAUGGCGUAUGAGACCCA | 0.185
GGCCGGCAUGGUCCCAGCCUCCUCGCUGGCGCCGGCUGGGCAACAUUCCGAGGGGACCGUCCCCUCGGUAAUGGCGUAUGUGACCCA | 0.237
